Data taken from patent publication US20190290692A1 (MINERVA BIOTECHNOLOGIES, published 2019).
Values belong to the binder of their own block, whether it stands above or below them.

B6: PSMGFR minus 10 amino acids from the C-terminus (peptide)
peptide: GTINVHDVETQFNQYKTEAASRYNLTISDVSVSDV
notes: also called C-10; C-10 PSMGFR

What was measured:
[1] = target: T1, PSMGFR peptide (Primary Sequence of the MUC1 Growth Factor Receptor); assay: ELISA, peptide on plate (FIG. 2C)
T1 construct: Immobilised on ELISA plates or attached to 1 um or 4.5 um beads; also called MUC1* peptide; MUC1* PSMGFR peptide
T1 peptide: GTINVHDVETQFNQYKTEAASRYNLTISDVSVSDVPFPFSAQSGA
Protocol: (§1) FIGS. 2A-2F show results of ELISA assays. MUC1* peptides PSMGFR, PSMGFR minus 10 amino acids from the N-terminus aka N-10, or PSMGFR minus 10 amino acids from the C-terminus, aka C-10 are immobilized on the plate and the following are assayed for binding: NME7-AB (A), MN-C2 monoclonal antibody (B), MN-E6 monoclonal antibody (C), or dimeric NME1 (D). […] MUC1* peptides PSMGFR minus 10 amino acids from the N-terminus aka N-10, or PSMGFR minus 10 amino acids from the C-terminus, aka C-10, are immobilized on the plate and the following are assayed for binding: MN-C3 (E) and MN-C8 (F).

[2] = target: T2, PSMGFR minus 10 amino acids from the N-terminus; assay: selection screens
T2 construct: also called N-10; N-10 PSMGFR
T2 peptide: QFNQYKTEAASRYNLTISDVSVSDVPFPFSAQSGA

[3] = target: T1, PSMGFR peptide (Primary Sequence of the …); assay: ELISA, surface coated with PSMGFR peptide
Protocol: Humanized MN-C2 scFv is then incubated with the surface, washed and detected according to standard methods.

[4] = target: T2, PSMGFR minus 10 amino acids from the …; assay: competitive ELISA, peptide on plate (FIG. 3C)
Protocol: FIGS. 3A-3C show results of competitive ELISA assays. The PSMGFR MUC1* peptide is immobilized on the plate and dimeric NM23-H1, aka NME1, is added either alone or after the MN-E6 antibody has been added (A). The same experiment was performed wherein NM23-H7, NME7-AB, is added alone or after MN-E6 has been added (B). […] In a similar experiment (C), PSMGFR or PSMGFR minus 10 amino acids from the N-terminus, aka N-10, is immobilized on the plate. Dimeric NM23-H1 is then added. Anti-MUC1* antibodies MN-E6, MN-C2, MN-C3 or MN-C8 are then tested for their ability to compete off the NM23-H1.

[5] = target: T1, PSMGFR peptide (Primary Sequence of the …); assay: ELISA, peptide on plate (FIG. 2B)
Protocol: as §1

[6] = target: T1, PSMGFR peptide (Primary Sequence of the …); assay: ELISA, peptide immobilised on plate (FIG. 22B)
Protocol: (§2) FIGS. 22A-22C show graphs of ELISAs wherein the assay plate surface was immobilized with either PSMGFR peptide, PSMGFR minus 10 amino acids from the N-terminus or minus 10 amino acids from the C-terminus. The MN-C3 antibody variants were then assayed for binding to the various MUC1* peptides. A) Purified mouse monoclonal MN-C3 antibody; B) Impure humanized MN-C3 antibody; and C) the humanized MN-C3 scFv-Fc. ELISAs show binding to the PSMGFR peptide as well as to certain deletion peptides.

[7] = target: T1, PSMGFR peptide (Primary Sequence of the …); assay: ELISA, PSMGFR on surface (FIG. 12)
dimeric NME1 = target: T3, dimeric NME1 (human, UniProt P15531 1-152, limits assumed); assay: ELISA, peptide immobilised on plate (FIG. 2D)
T3 construct: Used in dimer form; also called NM23-H1 dimers; dimeric NM23-H1
Protocol: as §1

NME7-AB = target: T4, NME7-AB (human, UniProt Q9Y5B8 92-376); assay: ELISA, peptide immobilised on plate (FIG. 2A)
T4 construct: also called NM23-H7
T4 sequence: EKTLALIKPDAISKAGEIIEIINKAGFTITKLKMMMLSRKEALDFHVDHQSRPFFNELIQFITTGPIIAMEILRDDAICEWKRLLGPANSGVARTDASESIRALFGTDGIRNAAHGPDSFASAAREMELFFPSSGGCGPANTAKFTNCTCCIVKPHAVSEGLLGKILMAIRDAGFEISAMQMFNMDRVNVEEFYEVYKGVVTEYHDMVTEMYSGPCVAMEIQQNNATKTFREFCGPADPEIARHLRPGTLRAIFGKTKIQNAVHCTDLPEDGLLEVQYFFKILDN
Protocol: as §1

[8] = target: T1, PSMGFR peptide (Primary Sequence of the …); assay: ELISA, peptide immobilised on plate (FIG. 22A)
Protocol: as §2

[9] = target: B6; assay: ELISA, N-10 and C-10 peptides on plate (FIG. 2E)
Protocol: as §1

T3 sequence (P15531 whole entry): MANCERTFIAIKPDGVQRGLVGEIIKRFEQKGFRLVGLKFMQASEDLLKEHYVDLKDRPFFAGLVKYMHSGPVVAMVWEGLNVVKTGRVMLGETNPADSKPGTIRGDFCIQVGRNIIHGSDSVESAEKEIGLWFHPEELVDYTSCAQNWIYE

B1: mouse monoclonal antibody MN-E6 (antibody, V domains shown)
VH: EVKVVESGGDLVKPGGSLKLSCVVSGFTFSRYGMSWVRQTPGKRLEWVATISGGGTYIYYPDSVKGRFTISRDNAKNTLYLQMSSLKSEDTAMYHCTRDNYGRNYDYGMDYWGQGTSVTVSS
VL: QIVLTQSPAIMSASPGEEVTLTCSATSSVSYIHWFQQRPGTSPKLWIYSTSNLASGVPVRFSGSGYGTSYSLTISRMEAEDAATYYCQQRSSSPFTFGSGTKLEIK
notes: also called Min-E6; parent MN-E6 antibody
binding result [1]: binds | binding result [2]: binds

B3: mouse monoclonal antibody MN-C2 (antibody, V domains shown)
VH: EVQLEESGGGLVKPGGSLKLSCAASGFTFSGYAMSWVRQTPEKRLEWVATISSGGTYIYYPDSVKGRFTISRDNAKNTLYLQMSSLRSEDTAMYYCARLGGDNYYEYFDVWGAGTTVTVSS
VL: DIVITQSTASLGVSLGQRATISCRASKSVSTSGYSYMHWYQQRPGQPPKLLIYLASNLESGVPARFSGSGSGTDFTLNIHPVEEEDAATYYCQHSRELPFTFGGGTKLEIKR
notes: also called Min-C2
binding result [4]: binds | binding result [5]: binds

B4: humanized MN-C3 antibody (impure preparation) (antibody, V domains shown)
VH: QVQLVQSGAEVKKPGASVKVSCKASGYTFTDYAMNWVRQAPGQGLEWMGVISTFSGNTNFNQKFKGRVTMTTDTSTSTAYMELRSLRSDDTAVYYCARSDYYGPYFDYWGQGTTLTVSS
VL: DIVMTQTPLSLSVTPGQPASISCRSSQTIVHSNGNTYLEWYLQKPGQSPQLLIYKVSNRFSGVPDRFSGSGSGTDFTLKISRVEAEDVGVYYCFQGSHVPFTFGGGTKVEIKR
notes: also called Impure humanized MN-C3 antibody
binding result [6]: binds

Binder: B6
binding result (dimeric NME1): no binding | binding result (NME7-AB): no binding

The next lines start with the values.

EC50 [3]: ~333 nM
B2: humanized MN-C2 scFv (scFv, V domains shown, not shown: small tags and cut ends)
VH: EVQLVESGGGLVKPGGSLRLSCAASGFTFSGYAMSWVRQAPGKGLEWVSTISSGGTYIYYPDSVKGRFTISRDNAKNSLYLQMNSLRAEDTAVYYCARLGGDNYYEYFDVWGKGTTVTVSS
VL: DIVLTQSPASLAVSPGQRATITCRASKSVSTSGYSYMHWYQQKPGQPPKLLIYLASNLESGVPARFSGSGSGTDFTLTINPVEANDTANYYCQHSRELPFTFGGGTKVEIKR
notes: also called huMN-C2 scFv; hMN-C2 scFv

binding result [7]: binds
B5: humanized MN-E6 scFv (scFv, V domains shown, not shown: small tags and cut ends)
VH: EVQLVESGGGLVKPGGSLRLSCAASGFTFSRYGMSWVRQAPGKRLEWVSTISGGGTYIYYPDSVKGRFTISRDNAKNTLYLQMNSLRAEDTAVYYCTRDNYGRNYDYGMDYWGQGTLVTVSS
VL: EIVLTQSPATLSLSPGERATLTCSATSSVSYIHWYQQRPGQSPRLLIYSTSNLASGIPARFSGSGSGSDYTLTISSLEPEDFAVYYCQQRSSSPFTFGSGTKVEIK
notes: also called hu MN-E6 scFv

binding result [4]: binds | binding result [8]: binds | binding result [9]: binds
B7: mouse monoclonal antibody MN-C3 (antibody, V domains shown)
VH: QVQLQQSGPELVRPGVSVKISCKGSGYRFTDYAMNWVKQSHAKSLEWIGVISTFSGNTNFNQKFKGKATMTVDKSSSTAYMELARLTSEDSAMYYCARSDYYGPYFDYWGQGTTLTVSS
VL: DVLMTQTPLSLPVSLGDQASISCRSSQTIVHSNGNTYLEWYLQKPGQSPKLLIYKVSNRFSGVPDRFSGSGSGTDFTLKINRVEAEDLGVYYCFQGSHVPFTFGSGTKLEIK
notes: also called Min-C3
